Target: the molecule itself
Test: AUC

B1: hCCL5-K25S (ligand)
chain: SPYSSDTTPCCFAYIARPLPRAHISEYFYTSGKCSNPAVVFVTRKNRQVCANPEKKWVREYINSLEMS
stoichiometry N: ~200
